Laboratory results from the Human Domainome abundance scans (Beltran et al. 2025).
± gives the uncertainty stated by the source.

B1: Spectrin alpha chain, erythrocytic 1, residues 979 to 1036; numbered along this chain, P02549 (parent)
chain: EQRVMALYDFQARSPREVTMKKGDVLTLLSSINKDWWKVEAADHQGIVPAVYVRRLAH

Variants of: B1
Assay: abundance fitness (aPCA) (normalised: wild type 0, dead -1); higher = more abundant; growth selection in yeast, the domain comes from the species named
Conditions: Homo sapiens

Which abundance fitness does the source give for EQRVMALYDFQARSPREVTMKKGDVLTLTSSINKDWWKVEAADHQGIVPAVYVRRLAH [L29T] here?
The abundance fitness was -0.27 ± 0.29.

Which abundance fitness does the source give for EQRVMALYDFQARSPREVTMKKGDVLTLPSSINKDWWKVEAADHQGIVPAVYVRRLAH [L29P] here?
The abundance fitness was 0.075 ± 0.33.

Which abundance fitness does the source give for EQRVMALYDFQARSPREVTMKKGDVLTLGSSINKDWWKVEAADHQGIVPAVYVRRLAH [L29G] here?
Its abundance fitness is -0.464 ± 0.23.

Which abundance fitness does the source give for EQRVMALYDFQARSPREVTMKKGDVLTLVSSINKDWWKVEAADHQGIVPAVYVRRLAH [L29V] here?
Its abundance fitness is 0.016 ± 0.081.

With EQRVMALYDFQARSPREVTMKKGDVLTLESSINKDWWKVEAADHQGIVPAVYVRRLAH [L29E] as the variant, how does the abundance fitness read?
The abundance fitness was -0.934 ± 0.22.

With EQRVMALYDFQARSPREVTMKKGDVLTLRSSINKDWWKVEAADHQGIVPAVYVRRLAH [L29R] as the variant, how does the abundance fitness read?
The abundance fitness was -0.768 ± 0.34.

Which abundance fitness does the source give for EQRVMALYDFQARSPREVTMKKGDVLTLLSSINTDWWKVEAADHQGIVPAVYVRRLAH [K34T] here?
Its abundance fitness is 0.023 ± 0.26.

Which abundance fitness does the source give for EQRVMALYDFQARSPREVTMKKGDVLTLLSSINADWWKVEAADHQGIVPAVYVRRLAH [K34A] here?
The abundance fitness was -0.292 ± 0.086.

For EQRVMALYDFQARSPREVTMKKGDVLTLLSSINPDWWKVEAADHQGIVPAVYVRRLAH [K34P], which abundance fitness is on record?
Its abundance fitness is -0.015 ± 0.33.

With EQRVMALYDFQARSPREVTMKKGDVLTLLSSINLDWWKVEAADHQGIVPAVYVRRLAH [K34L] as the variant, how does the abundance fitness read?
Its abundance fitness is 0.207 ± 0.17.

For EQRVMALYDFQARSPREVTMKKGDVLTLLSSINRDWWKVEAADHQGIVPAVYVRRLAH [K34R], which abundance fitness is on record?
Its abundance fitness is -0.168 ± 0.097.

For EQRVMALYDFQARSPREVTMKKGDVLTLLSSINVDWWKVEAADHQGIVPAVYVRRLAH [K34V], which abundance fitness is on record?
The abundance fitness was -0.741 ± 0.19.

With EQRVMALYDFQARSPREVTMKKGDVLTLLSSINHDWWKVEAADHQGIVPAVYVRRLAH [K34H] as the variant, how does the abundance fitness read?
Its abundance fitness is 0.231 ± 0.29.

Which abundance fitness does the source give for EQRVMALYDFQARSPREVTMKKGDVLTLLSSINMDWWKVEAADHQGIVPAVYVRRLAH [K34M] here?
The abundance fitness was -0.514 ± 0.11.

Which abundance fitness does the source give for EQRVMALYDFQARSPREVTMKKGDVLTLLSSINQDWWKVEAADHQGIVPAVYVRRLAH [K34Q] here?
Its abundance fitness is -0.229 ± 0.28.

With EQRVMALYDFQARSPREVTMKKGDVLTLLSSINGDWWKVEAADHQGIVPAVYVRRLAH [K34G] as the variant, how does the abundance fitness read?
The abundance fitness was -0.415 ± 0.081.

With EQRVMALYDFQARSPREVTMKKGDVLTSLSSINKDWWKVEAADHQGIVPAVYVRRLAH [L28S] as the variant, how does the abundance fitness read?
Its abundance fitness is -0.726 ± 0.39.

With EQRVMALYDFQARSPREVTMKKGDVLTWLSSINKDWWKVEAADHQGIVPAVYVRRLAH [L28W] as the variant, how does the abundance fitness read?
The abundance fitness was -0.536 ± 0.47.

With EQRVMALYDFQARSPREVTMKKGDVLTTLSSINKDWWKVEAADHQGIVPAVYVRRLAH [L28T] as the variant, how does the abundance fitness read?
Its abundance fitness is -0.47 ± 0.25.

Which abundance fitness does the source give for EQRVMALYDFQARSPREVTMKKGDVLTLLSSINKDKWKVEAADHQGIVPAVYVRRLAH [W36K] here?
The abundance fitness was -0.675 ± 0.29.

Which abundance fitness does the source give for EQRVMALYDFQARSPREVTMKKGDVLTLLSSINKDVWKVEAADHQGIVPAVYVRRLAH [W36V] here?
Its abundance fitness is -0.554 ± 0.42.

With EQRVMALYDFQARSPREVTMKKGDVLTLLSSINKDGWKVEAADHQGIVPAVYVRRLAH [W36G] as the variant, how does the abundance fitness read?
The abundance fitness was -0.778 ± 0.2.

With EQRVMALYDFQARSPREVTMKKGDVLTLLSSINKDRWKVEAADHQGIVPAVYVRRLAH [W36R] as the variant, how does the abundance fitness read?
The abundance fitness was -0.894 ± 0.36.

Which abundance fitness does the source give for EQRVMALYDFQARSPREVTMKKGDVLTLLSSINKDDWKVEAADHQGIVPAVYVRRLAH [W36D] here?
The abundance fitness was -0.582 ± 0.15.

For EQRVMALYDFQARSPREVTMKKGDVLTLLSSINKDEWKVEAADHQGIVPAVYVRRLAH [W36E], which abundance fitness is on record?
Its abundance fitness is 0.664 ± 0.2.

For EQRVMALYDFQARSPREVTMKKGDVLTLLSSINKDWWAVEAADHQGIVPAVYVRRLAH [K38A], which abundance fitness is on record?
The abundance fitness was -0.258 ± 0.29.

With EQRVMALYDFQARSPREVTMKKGDVLTLLSSINKDWGKVEAADHQGIVPAVYVRRLAH [W37G] as the variant, how does the abundance fitness read?
Its abundance fitness is -0.596 ± 0.31.

With EQRVMALYDFQARSPREVTMKKGDVLTLLSSINKDWRKVEAADHQGIVPAVYVRRLAH [W37R] as the variant, how does the abundance fitness read?
The abundance fitness was -0.267 ± 0.2.

For EQRVMALYDFQARSPREVTMKKGDVLTLLSSINKDWDKVEAADHQGIVPAVYVRRLAH [W37D], which abundance fitness is on record?
The abundance fitness was -0.644 ± 0.23.

Which abundance fitness does the source give for EQRVMALYDFQARSPREVTMKKGDVLTLLSSINKDWVKVEAADHQGIVPAVYVRRLAH [W37V] here?
The abundance fitness was 0.367 ± 0.1.

Which abundance fitness does the source give for EQRVMALYDFQARSPREVTMKKGDVLTLLSSINKDWCKVEAADHQGIVPAVYVRRLAH [W37C] here?
Its abundance fitness is -0.386 ± 0.25.

With EQRVMALYDFQARSPREVTMKKGDVLTLLSSINKDWMKVEAADHQGIVPAVYVRRLAH [W37M] as the variant, how does the abundance fitness read?
Its abundance fitness is -0.12 ± 0.2.

With EQRVMALYDFQARSPREVTMKKGDVLTLLSSINKDWAKVEAADHQGIVPAVYVRRLAH [W37A] as the variant, how does the abundance fitness read?
The abundance fitness was -0.848 ± 0.45.

Which abundance fitness does the source give for EQRVMALYDFQARSPREVTMKKGDVLTLLSSINKDWLKVEAADHQGIVPAVYVRRLAH [W37L] here?
Its abundance fitness is 0.323 ± 0.059.

With EQRVMALYDFQARSPREVTMKKGDVLTLLSSINKDWIKVEAADHQGIVPAVYVRRLAH [W37I] as the variant, how does the abundance fitness read?
The abundance fitness was 0.405 ± 0.2.

Which abundance fitness does the source give for EQRVMALYDFQARSPREVTMKKGDVLTLLSSIAKDWWKVEAADHQGIVPAVYVRRLAH [N33A] here?
Its abundance fitness is -0.751 ± 0.17.

For EQRVMALYDFQARSPREVTMKKGDVLTLLSSILKDWWKVEAADHQGIVPAVYVRRLAH [N33L], which abundance fitness is on record?
Its abundance fitness is -0.694 ± 0.29.

For EQRVMALYDFQARSPREVTMKKGDVLTLLSSIDKDWWKVEAADHQGIVPAVYVRRLAH [N33D], which abundance fitness is on record?
The abundance fitness was 0.224 ± 0.22.

Which abundance fitness does the source give for EQRVMALYDFQARSPREVTMKKGDVLTLLSSIRKDWWKVEAADHQGIVPAVYVRRLAH [N33R] here?
Its abundance fitness is -0.739 ± 0.12.

Which abundance fitness does the source give for EQRVMALYDFQARSPREVTMKKGDVLTLLSSISKDWWKVEAADHQGIVPAVYVRRLAH [N33S] here?
The abundance fitness was -0.35 ± 0.34.

With EQRVMALYDFQARSPREVTMKKGDVLTLLSSIGKDWWKVEAADHQGIVPAVYVRRLAH [N33G] as the variant, how does the abundance fitness read?
The abundance fitness was -0.447 ± 0.18.

With EQRVMALYDFQARSPREVTMKKGDVLTLLSSIWKDWWKVEAADHQGIVPAVYVRRLAH [N33W] as the variant, how does the abundance fitness read?
Its abundance fitness is -0.822 ± 0.21.

For EQRVMALYDFQARSPREVTMKKGDVLTLLSSICKDWWKVEAADHQGIVPAVYVRRLAH [N33C], which abundance fitness is on record?
The abundance fitness was -0.929 ± 0.38.

For EQRVMALYDFQARSPREVTMKKGDVLTLLSSIEKDWWKVEAADHQGIVPAVYVRRLAH [N33E], which abundance fitness is on record?
Its abundance fitness is -0.064 ± 0.21.

Which abundance fitness does the source give for EQRVMALYDFQARSPREVTMKKGDVLTLLSSIQKDWWKVEAADHQGIVPAVYVRRLAH [N33Q] here?
Its abundance fitness is -0.494 ± 0.28.

For EQRVMALYDFQARSPREVTMKKGDVLTLLSSIVKDWWKVEAADHQGIVPAVYVRRLAH [N33V], which abundance fitness is on record?
Its abundance fitness is -0.833 ± 0.3.
